Test results taken from US20190263918A1 (SHANGHAI JIAO TONG UNIVERSITY SCHOOL OF MEDICINE, published 2019).
Values belong to the binder of their own block, whether it stands above or below them.

B8: human FcγRIIA-R131 extracellular domain protein (receptor, UniProt P12318 34-217, looked up)
chain: QAAAPPKAVLKLEPPWINVLQEDSVTLTCQGARSPESDSIQWFHNGNLIPTHTQPSYRFKANNNDSGEYTCQTGQTSLSDPVHLTVLSEWLVLQTPHLEFQEGETIMLRCHSWKDKPLVKVTFFQNGKSQKFSRLDPTFSIPQANHSHSGDYHCTGNIGYTLFSSKPVTITVQVPSMGSSSPMG
notes: extracellular domain; SPR: His-tagged, immobilised; ELISA: biotinylated; also called hFcγRIIA-R131; CD32a
B9: human FcγRIIB extracellular domain protein (receptor, UniProt P31994 43-217, looked up)
chain: TPAAPPKAVLKLEPQWINVLQEDSVTLTCRGTHSPESDSIQWFHNGNLIPTHTQPSYRFKANNNDSGEYTCQTGQTSLSDPVHLTVLSEWLVLQTPHLEFQEGETIVLRCHSWKDKPLVKVTFFQNGKSKKFSRSDPNFSIPQANHSHSGDYHCTGNIGYTLYSSKPVTITVQAP
notes: extracellular domain; SPR: His-tagged, immobilised; ELISA: biotinylated; also called hFcγRIIB; CD32b

Tests used:
[1] = molecular target: T1, recombinant murine CD40 protein (murine, UniProt P27512 24-193, limits assumed); test: ELISA: plate coated with recombinant murine CD40, antibody in gradient dilutions, HRP-labelled goat anti-human IgG-Fc secondary antibody, A650
T1 construct: Bought; coated on the ELISA plate; also called mouse CD40; mCD40
T1 sequence (looked up): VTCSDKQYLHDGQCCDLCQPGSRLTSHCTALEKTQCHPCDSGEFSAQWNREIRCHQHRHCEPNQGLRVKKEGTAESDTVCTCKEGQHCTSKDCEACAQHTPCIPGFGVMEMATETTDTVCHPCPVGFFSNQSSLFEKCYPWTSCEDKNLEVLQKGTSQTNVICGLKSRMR
Procedure: (§1) For assay on anti-human CD40 antibodies, an ELISA plate was coated with recombinant human CD40 protein (Novoprotein Scientific Inc.) overnight at atmospheric temperature, blocked using 1% BSA at room temperature for 2 h, and then washed three times with PBST (0.05% Tween 20 in PBS). To each well was added […] gradient dilutions of the human agonistic CD40 antibody. The plate was incubated at room temperature for 1 h and washed four times with PBST. Then, 100 ng/ml biotinylated secondary antibody against human Igκ light chain was added, incubated at room temperature for 1 h and washed 4 times with PBST. SAV-HRP at an appropriate concentration was added, incubated at room temperature for 1 h. Then, chromogenic substrate was added to react for 5 minutes, and optical absorbance was determined at 650 nm.
For assay on anti-murine CD40 antibodies, the process was the same, expect that the plate was coated with recombinant murine CD40 protein (Novoprotein Scientific Inc.) and HRP-labeled goat anti-human IgG-Fc antibody was used as the secondary antibody.

[2] = molecular target: T2, recombinant human CD40 protein (human, UniProt P25942 21-193); test: ELISA: plate coated with recombinant human CD40, antibody in gradient dilutions, biotinylated anti-human Igκ light chain secondary antibody, SAV-HRP, A650
T2 construct: Bought; coated on the ELISA plate; also called hCD40
T2 sequence (P25942 21-193 limits assumed): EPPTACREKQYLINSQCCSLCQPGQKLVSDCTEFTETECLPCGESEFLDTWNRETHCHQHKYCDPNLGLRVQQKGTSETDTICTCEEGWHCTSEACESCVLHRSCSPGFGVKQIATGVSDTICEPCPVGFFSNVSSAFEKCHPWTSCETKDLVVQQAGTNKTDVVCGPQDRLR
Procedure: as §1

[3] = molecular target: B8; test: ELISA: plate coated with the anti-human CD40 antibody, biotinylated human FcγRIIA-R131 extracellular domain, streptavidin-HRP, A650 [FcγRIIA-R131 panels]
Procedure: (§2) The ELISA plate was coated with 100 μL antibody at an appropriate concentration overnight, supernatant being discarded. The plate was blocked with 1% BSA in PBS for 2 hours, followed by washing with PBST (PBS with 0.05% Tween 20). Then, biotinylated FcγR extracellular domain protein (Sino Biologic Inc., Beijing China) at a concentration as appropriate was added and incubated at room temperature for 1 hour, supernatant being discarded, followed by PBST wash. Streptavidin-HRP (BD Biosciences) was added and incubated at room temperature for 1 hour for detection of biotin protein. After removal of supernatant, developing solution was added to react for 20-40 minutes, and absorbance was determined at 650 nm (A650).

[4] = molecular target: B8; test: ELISA: plate coated with the anti-human CD40 antibody, biotinylated human FcγRIIA-R131 extracellular domain, streptavidin-HRP, A650 [upper FcγRIIA-R131 panel]
Procedure: as §2

[5] = molecular target: B9; test: SPR, Biacore T100, FcγR extracellular domain immobilised, 1:1 model
[6] = molecular target: B8; test: as above
[7] = molecular target: Fc fragment of heavy chain constant region G1 (hIgG1) (human, UniProt P0DOX5 234-449 = IgG part); test: as above
[8] = molecular target: T3, human FcγRI extracellular domain protein (human, UniProt P12314 16-292); test: as above
T3 construct: extracellular domain; also called hFcγRI; CD64
T3 sequence (P12314 16-292): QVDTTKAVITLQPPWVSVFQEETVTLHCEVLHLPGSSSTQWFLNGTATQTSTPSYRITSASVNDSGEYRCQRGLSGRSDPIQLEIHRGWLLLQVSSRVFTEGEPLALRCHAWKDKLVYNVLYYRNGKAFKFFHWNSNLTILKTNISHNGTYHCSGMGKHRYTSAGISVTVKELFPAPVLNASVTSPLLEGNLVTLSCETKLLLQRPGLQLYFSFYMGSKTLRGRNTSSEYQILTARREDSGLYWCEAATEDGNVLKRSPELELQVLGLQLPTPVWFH

[9] = molecular target: T4, human FcγRIIIA-F158 extracellular domain protein (human, UniProt P08637 17-208); test: SPR, Biacore T100, FcγR extracellular domain immobilised
T4 construct: extracellular domain; SPR: His-tagged, immobilised; also called hFcγRIIIA-F158; CD16a
T4 sequence (P08637 17-208): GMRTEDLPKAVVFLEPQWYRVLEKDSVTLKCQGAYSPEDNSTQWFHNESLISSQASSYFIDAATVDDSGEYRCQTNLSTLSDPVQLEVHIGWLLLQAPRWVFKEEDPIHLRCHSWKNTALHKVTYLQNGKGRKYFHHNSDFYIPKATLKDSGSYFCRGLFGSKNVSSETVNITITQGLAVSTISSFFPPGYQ

B2: Anti-mCD40-hIgG2(V11) (antibody)
heavy: EVQLVESDGGLVQPGRSLKLPCAASGFTFSDYYMAWVRQAPTKGLEWVASISYDGSSTYYRDSVKGRFTISRDNAKSTLYLQMDSLRSEDTATYYCGRHSSYFDYWGQGVMVTVSSASTKGPSVFPLAPCSRSTSESTAALGCLVKDYFPEPVTVSWNSGALTSGVHTFPAVLQSSGLYSLSSVVTVPSSNFGTQTYTCNVDHKPSNTKVDKTVERKCCVECPPCPAPELLGDDSVFLFPPKPKDTLMISRTPEVTCVVVDVSDEDGEVKFNWYVDGVEVHNAKTKPREEQYNSTYRVVSVLTVLHQDWLNGKEYKCKVSNKALPRPIEKTISKAKGQPREPQVYTLPPSRDELTKNQVSLTCLVKGFYPSDIAVEWESNGQPENNYKTTPPVLDSDGSFFLYSKLTVDKSRWQQGNVFSCSVMHEALHNHYTQKSLSLSPGK
light: DTVLTQSPALAVSPGERVTISCRASDSVSTLMHWYQQKPGQQPKLLIYLASHLESGVPARFSGSGSGTDFTLTIDPVEADDTATYYCQQSWNDPWTFGGGTKLELKRTVAAPSVFIFPPSDEQLKSGTASVVCLLNNFYPREAKVQWKVDNALQSGNSQESVTEQDSKDSTYSLSSTLTLSKADYEKHKVYACEVTHQGLSSPVTKSFNRGEC
notes: Chimeric anti-murine CD40 antibody, heavy chain constant region V11(H2), i.e. JAC1; also called anti-murine CD40 antibody comprising JAC1
- EC50 (read off the curve) [1]: ~0.1 µg/mL

B3: Anti-hCD40-hIgG1 (antibody)
heavy: not shown
light: DIQMTQSPSSVSASVGDRVTITCRASQGIYSWLAWYQQKPGKAPNLLIYTASTLQSGVPSRFSGSGSGTDFTLTISSLQPEDFATYYCQQANIFPLTFGGGTKVEIKRTVAAPSVFIFPPSDEQLKSGTASVVCLLNNFYPREAKVQWKVDNALQSGNSQESVTEQDSKDSTYSLSSTLTLSKADYEKHKVYACEVTHQGLSSPVTKSFNRGEC
notes: Human anti-human CD40 antibody with the light chain and VH of CP-870893; heavy chain constant region G1
- EC50 (read off the curve) [2]: ~0.2 µg/mL
- binding result [3]: binds

B6: Anti-hCD40-hIgG2-NA (antibody)
heavy: not shown
light: DIQMTQSPSSVSASVGDRVTITCRASQGIYSWLAWYQQKPGKAPNLLIYTASTLQSGVPSRFSGSGSGTDFTLTISSLQPEDFATYYCQQANIFPLTFGGGTKVEIKRTVAAPSVFIFPPSDEQLKSGTASVVCLLNNFYPREAKVQWKVDNALQSGNSQESVTEQDSKDSTYSLSSTLTLSKADYEKHKVYACEVTHQGLSSPVTKSFNRGEC
notes: Human anti-human CD40 antibody, heavy chain constant region G2-NA (N297A)
- binding result [3]: no binding

B7: Fc fragment of heavy chain constant region G1-GASDALIE (hIgG1 G236A/S239D/A330L/I332E) (other)
chain: PELLAGPDVFLFPPKPKDTLMISRTPEVTCVVVDVSHEDPEVKFNWYVDGVEVHNAKTKPREEQYNSTYRVVSVLTVLHQDWLNGKEYKCKVSNKALPLPEEKTISKAKGQPREPQVYTLPPSRDELTKNQVSLTCLVKGFYPSDIAVEWESNGQPENNYKTTPPVLDSDGSFFLYSKLTVDKSRWQQGNVFSCSVMHEALHNHYTQKSLSLSPGK
- Kd [5]: 740 nM
- Kd [6]: 63 nM

Binder: B8
- Kd [7]: 1200 nM

Binder: B9
- Kd [7]: 3000 nM

Results, then the binder that gave them:

- EC50 (read off the curve) [1]: ~0.1 µg/mL
B1: Anti-mCD40-hIgG1(V11) (antibody)
heavy: EVQLVESDGGLVQPGRSLKLPCAASGFTFSDYYMAWVRQAPTKGLEWVASISYDGSSTYYRDSVKGRFTISRDNAKSTLYLQMDSLRSEDTATYYCGRHSSYFDYWGQGVMVTVSSATTKGPSVFPLAPSSKSTSGGTAALGCLVKDYFPEPVTVSWNSGALTSGVHTFPAVLQSSGLYSLSSVVTVPSSSLGTQTYICNVNHKPSNTKVDKRVEPKSCDKTHTCPPCPAPELLGDDSVFLFPPKPKDTLMISRTPEVTCVVVDVSDEDGEVKFNWYVDGVEVHNAKTKPREEQYNSTYRVVSVLTVLHQDWLNGKEYKCKVSNKALPRPIEKTISKAKGQPREPQVYTLPPSRDELTKNQVSLTCLVKGFYPSDIAVEWESNGQPENNYKTTPPVLDSDGSFFLYSKLTVDKSRWQQGNVFSCSVMHEALHNHYTQKSLSLSPGK
light: DTVLTQSPALAVSPGERVTISCRASDSVSTLMHWYQQKPGQQPKLLIYLASHLESGVPARFSGSGSGTDFTLTIDPVEADDTATYYCQQSWNDPWTFGGGTKLELKRTVAAPSVFIFPPSDEQLKSGTASVVCLLNNFYPREAKVQWKVDNALQSGNSQESVTEQDSKDSTYSLSSTLTLSKADYEKHKVYACEVTHQGLSSPVTKSFNRGEC
notes: Chimeric anti-murine CD40 antibody, heavy chain constant region V11(H1)

- EC50 (read off the curve) [2]: ~0.1 µg/mL
B4: Anti-hCD40-hIgG3 (antibody)
heavy: not shown
light: DIQMTQSPSSVSASVGDRVTITCRASQGIYSWLAWYQQKPGKAPNLLIYTASTLQSGVPSRFSGSGSGTDFTLTISSLQPEDFATYYCQQANIFPLTFGGGTKVEIKRTVAAPSVFIFPPSDEQLKSGTASVVCLLNNFYPREAKVQWKVDNALQSGNSQESVTEQDSKDSTYSLSSTLTLSKADYEKHKVYACEVTHQGLSSPVTKSFNRGEC
notes: Human anti-human CD40 antibody, heavy chain constant region G3

- binding result [4]: binds
B5: Anti-hCD40-hIgG2(V11) (antibody)
heavy: not shown
light: DIQMTQSPSSVSASVGDRVTITCRASQGIYSWLAWYQQKPGKAPNLLIYTASTLQSGVPSRFSGSGSGTDFTLTISSLQPEDFATYYCQQANIFPLTFGGGTKVEIKRTVAAPSVFIFPPSDEQLKSGTASVVCLLNNFYPREAKVQWKVDNALQSGNSQESVTEQDSKDSTYSLSSTLTLSKADYEKHKVYACEVTHQGLSSPVTKSFNRGEC
notes: Human anti-human CD40 antibody, heavy chain constant region V11(H2), i.e. JAC1; also called anti-human CD40 antibody comprising JAC1

- Kd [8]: 580 nM
- Kd [5]: 94 nM
- Kd [6]: 4100 nM
- binding result [9]: no binding
B10: Fc fragment of heavy chain constant region V9(H1) (hIgG1 G237D/P238D/P271G/A330R) (other)
chain: PELLGDDSVFLFPPKPKDTLMISRTPEVTCVVVDVSHEDGEVKFNWYVDGVEVHNAKTKPREEQYNSTYRVVSVLTVLHQDWLNGKEYKCKVSNKALPRPIEKTISKAKGQPREPQVYTLPPSRDELTKNQVSLTCLVKGFYPSDIAVEWESNGQPENNYKTTPPVLDSDGSFFLYSKLTVDKSRWQQGNVFSCSVMHEALHNHYTQKSLSLSPGK
